{"source": "patent US20230220084A1", "binders": {"B1": {"name": "F3′-1295 (bispecific antibody, part only; not given: Fc and unrelated binding arm, not shown: another chain or arm of the molecule; a dimerising Fc or GST)", "scFv": "QLQLQESGPGLVKPSETLSLTCTVSGFSLTNYGLHWIRQPPGKCLEWIGVIWSGGKTDYNPSLKSRVTISKDTSKNQFSLKLSSVQAADTAVYYCAKYDYDDSLDYWGQGTLVTVSSGGGGSGGGGSGGGGSGGGGSDIQMTQSPSSLSASVGDRVTITCHASQNINFWLSWYQQKPGKIPKLLIYEASNLHTGVPSRFSGSGSGTRFTLTISSLQPEDIATYYCQQSHSYPLTFGCGTKLEIK"}}, "key": {"[1]": {"target": "human CLEC12A expressed on cells (human) (UniProt Q5QGZ9)", "sequence (Q5QGZ9 whole entry)": "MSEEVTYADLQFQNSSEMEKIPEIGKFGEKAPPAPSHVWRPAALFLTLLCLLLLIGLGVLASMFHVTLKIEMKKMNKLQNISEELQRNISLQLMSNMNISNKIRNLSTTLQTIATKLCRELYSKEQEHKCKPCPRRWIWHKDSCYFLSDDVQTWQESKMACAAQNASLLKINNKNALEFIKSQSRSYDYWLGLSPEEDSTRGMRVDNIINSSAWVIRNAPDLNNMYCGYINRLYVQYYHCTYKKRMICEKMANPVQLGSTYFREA", "experiment": "flow cytometry, hCLEC12A+Ba/F3 cells"}, "[2]": {"target": "hCLEC12A-His fusion protein (human) (UniProt Q5QGZ9)", "sequence (Q5QGZ9 65-265 limits assumed)": "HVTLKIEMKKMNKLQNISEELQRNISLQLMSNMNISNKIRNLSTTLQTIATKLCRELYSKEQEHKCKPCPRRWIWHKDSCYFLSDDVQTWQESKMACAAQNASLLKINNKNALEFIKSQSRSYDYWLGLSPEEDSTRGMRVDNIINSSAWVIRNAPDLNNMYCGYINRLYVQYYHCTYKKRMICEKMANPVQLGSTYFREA", "experiment": "SPR (Biacore) 37 C, mean of 4"}, "[3]": {"target": "hCLEC12A-His fusion protein (human) (UniProt Q5QGZ9)", "experiment": "SPR screening, semi-purified protein"}, "[4]": {"target": "hCLEC12A-His fusion protein (human) (UniProt Q5QGZ9)", "experiment": "SPR (Biacore) 37 C"}}, "note": "Where “and” joins values, the source holds several entries; their conditions need not be identical. Equal values may be shown once."}
{"binder": "B1", "values": [{"measurement": "EC50", "setting": "[1]", "result": 26.1, "unit": "nM"}, {"measurement": "Max MFI", "setting": "[1]", "result": 48000, "unit": "MFI"}, {"measurement": "Kd", "setting": "[2]", "result": 1.43, "unit": "nM"}, {"measurement": "koff", "setting": "[2]", "result": 0.000594, "unit": "s⁻¹"}, {"measurement": "kon", "setting": "[2]", "result": 415000, "unit": "M⁻¹ s⁻¹"}, {"measurement": "Kd", "setting": "[3]", "result": 2.94, "unit": "nM"}, {"measurement": "koff", "setting": "[3]", "result": 0.00153, "unit": "s⁻¹"}, {"measurement": "kon", "setting": "[3]", "result": 520000, "unit": "M⁻¹ s⁻¹"}, {"measurement": "Kd", "setting": "[4]", "result": "1.43 nM and 1.42 nM and 1.44 nM"}]}
